According to patent publication US20170101454A1 (Novo Nordisk, published 2017):
Starred links: 1 amine or outer side, 2 acyl side, 3 side chain; linkers in the order of their positions; H or OH if unused. Non-standard residues stand in square brackets, D forms with d. Groups on a side chain read outwards from the residue. No end group written: not given here. *: point of attachment. C18 diacid = O=C(O)CCCCCCCCCCCCCCCCC(=O)*; γGlu = O=C(O)[C@H](CCC(=O)[*:2])N[*:1]; Ac4c = NC1(C(=O)O)CCC1; AEEA = NCCOCCOCC(=O)O; Aib = CC(C)(N)C(=O)O

B1: N^ε28-[(4S)-4-carboxy-4-[[(4S)-4-carboxy-4-[[2-[2-[2-[[2-[2-[2-[[(4S)-4-carboxy-4-[[(4S)-4-carboxy-4-(17-carboxyheptadecanoylamino)butanoyl]amino]butanoyl]amino … (peptide)
peptide: H[Ac4c]QGTFTSDISKYLESRRAREFVQWLIK([γGlu-γGlu-AEEA-AEEA-γGlu-γGlu-C18 diacid])T-NH2
modifications: N-terminus assumed
SMILES: CC[C@H](C)[C@H](NC(=O)[C@H](CC(=O)O)NC(=O)[C@H](CO)NC(=O)[C@@H](NC(=O)[C@H](Cc1ccccc1)NC(=O)[C@@H](NC(=O)CNC(=O)[C@H](CCC(N)=O)NC(=O)C1(NC(=O)[C@@H](N)Cc2c[nH]cn2)CCC1)[C@@H](C)O)[C@@H](C)O)C(=O)N[C@@H](CO)C(=O)N[C@@H](CCCCN)C(=O)N[C@@H](Cc1ccc(O)cc1)C(=O)N[C@@H](CC(C)C)C(=O)N[C@@H](CCC(=O)O)C(=O)N[C@@H](CO)C(=O)N[C@@H](CCCNC(=N)N)C(=O)N[C@@H](CCCNC(=N)N)C(=O)N[C@@H](C)C(=O)N[C@@H](CCCNC(=N)N)C(=O)N[C@@H](CCC(=O)O)C(=O)N[C@@H](Cc1ccccc1)C(=O)N[C@H](C(=O)N[C@@H](CCC(N)=O)C(=O)N[C@@H](Cc1c[nH]c2ccccc12)C(=O)N[C@@H](CC(C)C)C(=O)N[C@H](C(=O)N[C@@H](CCCCNC(=O)CC[C@H](NC(=O)CC[C@H](NC(=O)COCCOCCNC(=O)COCCOCCNC(=O)CC[C@H](NC(=O)CC[C@H](NC(=O)CCCCCCCCCCCCCCCCC(=O)O)C(=O)O)C(=O)O)C(=O)O)C(=O)O)C(=O)N[C@H](C(N)=O)[C@@H](C)O)[C@@H](C)CC)C(C)C
notes: also called Chem. 26; Chem 26
B2: N^ε29-[(4S)-4-carboxy-4-[[(4S)-4-carboxy-4-[[2-[2-[2-[[2-[2-[2-[[(4S)-4-carboxy-4-(17-carboxyheptadecanoylamino)butanoyl]amino]ethoxy]ethoxy]acetyl]amino]ethoxy … (peptide)
peptide: H[Aib]QGTFTSDLSKYLDARRARDFVQWLINK([γGlu-γGlu-AEEA-AEEA-γGlu-C18 diacid])-NH2
modifications: N-terminus assumed
SMILES: CC[C@H](C)[C@H](NC(=O)[C@H](CC(C)C)NC(=O)[C@H](Cc1c[nH]c2ccccc12)NC(=O)[C@H](CCC(N)=O)NC(=O)[C@@H](NC(=O)[C@H](Cc1ccccc1)NC(=O)[C@H](CC(=O)O)NC(=O)[C@H](CCCNC(=N)N)NC(=O)[C@H](C)NC(=O)[C@H](CCCNC(=N)N)NC(=O)[C@H](CCCNC(=N)N)NC(=O)[C@H](C)NC(=O)[C@H](CC(=O)O)NC(=O)[C@H](CC(C)C)NC(=O)[C@H](Cc1ccc(O)cc1)NC(=O)[C@H](CCCCN)NC(=O)[C@H](CO)NC(=O)[C@H](CC(C)C)NC(=O)[C@H](CC(=O)O)NC(=O)[C@H](CO)NC(=O)[C@@H](NC(=O)[C@H](Cc1ccccc1)NC(=O)[C@@H](NC(=O)CNC(=O)[C@H](CCC(N)=O)NC(=O)C(C)(C)NC(=O)[C@@H](N)Cc1c[nH]cn1)[C@@H](C)O)[C@@H](C)O)C(C)C)C(=O)N[C@@H](CC(N)=O)C(=O)N[C@@H](CCCCNC(=O)CC[C@H](NC(=O)CC[C@H](NC(=O)COCCOCCNC(=O)COCCOCCNC(=O)CC[C@H](NC(=O)CCCCCCCCCCCCCCCCC(=O)O)C(=O)O)C(=O)O)C(=O)O)C(N)=O
notes: also called Chem. 20; Chem 20
B3: N^ε29-[(4S)-4-carboxy-4-[[(4S)-4-carboxy-4-[[2-[2-[2-[[2-[2-[2-[[(4S)-4-carboxy-4-(17-carboxyheptadecanoylamino)butanoyl]amino]ethoxy]ethoxy]acetyl]amino]ethoxy … (peptide)
peptide: H[Aib]QGTFTSDLSKYLDARRAREFVQWLINK([γGlu-γGlu-AEEA-AEEA-γGlu-C18 diacid])-NH2
modifications: N-terminus assumed
SMILES: CC[C@H](C)[C@H](NC(=O)[C@H](CC(C)C)NC(=O)[C@H](Cc1c[nH]c2ccccc12)NC(=O)[C@H](CCC(N)=O)NC(=O)[C@@H](NC(=O)[C@H](Cc1ccccc1)NC(=O)[C@H](CCC(=O)O)NC(=O)[C@H](CCCNC(=N)N)NC(=O)[C@H](C)NC(=O)[C@H](CCCNC(=N)N)NC(=O)[C@H](CCCNC(=N)N)NC(=O)[C@H](C)NC(=O)[C@H](CC(=O)O)NC(=O)[C@H](CC(C)C)NC(=O)[C@H](Cc1ccc(O)cc1)NC(=O)[C@H](CCCCN)NC(=O)[C@H](CO)NC(=O)[C@H](CC(C)C)NC(=O)[C@H](CC(=O)O)NC(=O)[C@H](CO)NC(=O)[C@@H](NC(=O)[C@H](Cc1ccccc1)NC(=O)[C@@H](NC(=O)CNC(=O)[C@H](CCC(N)=O)NC(=O)C(C)(C)NC(=O)[C@@H](N)Cc1c[nH]cn1)[C@@H](C)O)[C@@H](C)O)C(C)C)C(=O)N[C@@H](CC(N)=O)C(=O)N[C@@H](CCCCNC(=O)CC[C@H](NC(=O)CC[C@H](NC(=O)COCCOCCNC(=O)COCCOCCNC(=O)CC[C@H](NC(=O)CCCCCCCCCCCCCCCCC(=O)O)C(=O)O)C(=O)O)C(=O)O)C(N)=O
notes: also called Chem. 21; Chem 21
B4: N^ε29-[(4S)-4-carboxy-4-[[(4S)-4-carboxy-4-[[2-[2-[2-[[2-[2-[2-[[(4S)-4-carboxy-4-(17-carboxyheptadecanoylamino)butanoyl]amino]ethoxy]ethoxy]acetyl]amino]ethoxy … (peptide)
peptide: H[Aib]QGTFTSDLSKYLDARRARDFVQWLISK([γGlu-γGlu-AEEA-AEEA-γGlu-C18 diacid])-NH2
modifications: N-terminus assumed
SMILES: CC[C@H](C)[C@H](NC(=O)[C@H](CC(C)C)NC(=O)[C@H](Cc1c[nH]c2ccccc12)NC(=O)[C@H](CCC(N)=O)NC(=O)[C@@H](NC(=O)[C@H](Cc1ccccc1)NC(=O)[C@H](CC(=O)O)NC(=O)[C@H](CCCNC(=N)N)NC(=O)[C@H](C)NC(=O)[C@H](CCCNC(=N)N)NC(=O)[C@H](CCCNC(=N)N)NC(=O)[C@H](C)NC(=O)[C@H](CC(=O)O)NC(=O)[C@H](CC(C)C)NC(=O)[C@H](Cc1ccc(O)cc1)NC(=O)[C@H](CCCCN)NC(=O)[C@H](CO)NC(=O)[C@H](CC(C)C)NC(=O)[C@H](CC(=O)O)NC(=O)[C@H](CO)NC(=O)[C@@H](NC(=O)[C@H](Cc1ccccc1)NC(=O)[C@@H](NC(=O)CNC(=O)[C@H](CCC(N)=O)NC(=O)C(C)(C)NC(=O)[C@@H](N)Cc1c[nH]cn1)[C@@H](C)O)[C@@H](C)O)C(C)C)C(=O)N[C@@H](CO)C(=O)N[C@@H](CCCCNC(=O)CC[C@H](NC(=O)CC[C@H](NC(=O)COCCOCCNC(=O)COCCOCCNC(=O)CC[C@H](NC(=O)CCCCCCCCCCCCCCCCC(=O)O)C(=O)O)C(=O)O)C(=O)O)C(N)=O
notes: also called Chem. 27; Chem 27
B5: N^ε29-[(4S)-4-carboxy-4-[[(4S)-4-carboxy-4-[[2-[2-[2-[[2-[2-[2-[[(4S)-4-carboxy-4-(17-carboxyheptadecanoylamino)butanoyl]amino]ethoxy]ethoxy]acetyl]amino]ethoxy … (peptide)
peptide: H[Aib]QGTFTSDLSKYLDARRAREFVQWLISK([γGlu-γGlu-AEEA-AEEA-γGlu-C18 diacid])-NH2
modifications: N-terminus assumed
SMILES: CC[C@H](C)[C@H](NC(=O)[C@H](CC(C)C)NC(=O)[C@H](Cc1c[nH]c2ccccc12)NC(=O)[C@H](CCC(N)=O)NC(=O)[C@@H](NC(=O)[C@H](Cc1ccccc1)NC(=O)[C@H](CCC(=O)O)NC(=O)[C@H](CCCNC(=N)N)NC(=O)[C@H](C)NC(=O)[C@H](CCCNC(=N)N)NC(=O)[C@H](CCCNC(=N)N)NC(=O)[C@H](C)NC(=O)[C@H](CC(=O)O)NC(=O)[C@H](CC(C)C)NC(=O)[C@H](Cc1ccc(O)cc1)NC(=O)[C@H](CCCCN)NC(=O)[C@H](CO)NC(=O)[C@H](CC(C)C)NC(=O)[C@H](CC(=O)O)NC(=O)[C@H](CO)NC(=O)[C@@H](NC(=O)[C@H](Cc1ccccc1)NC(=O)[C@@H](NC(=O)CNC(=O)[C@H](CCC(N)=O)NC(=O)C(C)(C)NC(=O)[C@@H](N)Cc1c[nH]cn1)[C@@H](C)O)[C@@H](C)O)C(C)C)C(=O)N[C@@H](CO)C(=O)N[C@@H](CCCCNC(=O)CC[C@H](NC(=O)CC[C@H](NC(=O)COCCOCCNC(=O)COCCOCCNC(=O)CC[C@H](NC(=O)CCCCCCCCCCCCCCCCC(=O)O)C(=O)O)C(=O)O)C(=O)O)C(N)=O
notes: also called Chem. 28; Chem 28
B6: N^ε29-[(4S)-4-carboxy-4-[[(4S)-4-carboxy-4-[[2-[2-[2-[[2-[2-[2-[[(4S)-4-carboxy-4-(17-carboxyheptadecanoylamino)butanoyl]amino]ethoxy]ethoxy]acetyl]amino]ethoxy … (peptide)
chain: H[Aib]QGTFTSDLSKYLDLRRARDFVAWLINK([γGlu-γGlu-AEEA-AEEA-γGlu-C18 diacid])-NH2
modifications: N-terminus assumed
SMILES: CC[C@H](C)[C@H](NC(=O)[C@H](CC(C)C)NC(=O)[C@H](Cc1c[nH]c2ccccc12)NC(=O)[C@H](C)NC(=O)[C@@H](NC(=O)[C@H](Cc1ccccc1)NC(=O)[C@H](CC(=O)O)NC(=O)[C@H](CCCNC(=N)N)NC(=O)[C@H](C)NC(=O)[C@H](CCCNC(=N)N)NC(=O)[C@H](CCCNC(=N)N)NC(=O)[C@H](CC(C)C)NC(=O)[C@H](CC(=O)O)NC(=O)[C@H](CC(C)C)NC(=O)[C@H](Cc1ccc(O)cc1)NC(=O)[C@H](CCCCN)NC(=O)[C@H](CO)NC(=O)[C@H](CC(C)C)NC(=O)[C@H](CC(=O)O)NC(=O)[C@H](CO)NC(=O)[C@@H](NC(=O)[C@H](Cc1ccccc1)NC(=O)[C@@H](NC(=O)CNC(=O)[C@H](CCC(N)=O)NC(=O)C(C)(C)NC(=O)[C@@H](N)Cc1c[nH]cn1)[C@@H](C)O)[C@@H](C)O)C(C)C)C(=O)N[C@@H](CC(N)=O)C(=O)N[C@@H](CCCCNC(=O)CC[C@H](NC(=O)CC[C@H](NC(=O)COCCOCCNC(=O)COCCOCCNC(=O)CC[C@H](NC(=O)CCCCCCCCCCCCCCCCC(=O)O)C(=O)O)C(=O)O)C(=O)O)C(N)=O

Tests used:
human GLP-1 receptor [1] = molecular target: T1, human GLP-1 receptor (human, UniProt P43220 24-463); assay: cell-based or functional assay
human glucagon receptor [2] = molecular target: T2, human glucagon receptor (human, UniProt P47871 26-477); assay: cell-based or functional assay
human GLP-1 receptor [3] = molecular target: T1, human GLP-1 receptor; assay: displacement of [125I]-GLP-1-(7-36)NH2 from BHK membranes with human GLP-1R, SPA, no serum albumin
human glucagon receptor [4] = molecular target: T2, human glucagon receptor; assay: displacement of [125I]-glucagon from BHK membranes with human glucagon receptor, SPA, no serum albumin

T2 sequence (P47871 26-477): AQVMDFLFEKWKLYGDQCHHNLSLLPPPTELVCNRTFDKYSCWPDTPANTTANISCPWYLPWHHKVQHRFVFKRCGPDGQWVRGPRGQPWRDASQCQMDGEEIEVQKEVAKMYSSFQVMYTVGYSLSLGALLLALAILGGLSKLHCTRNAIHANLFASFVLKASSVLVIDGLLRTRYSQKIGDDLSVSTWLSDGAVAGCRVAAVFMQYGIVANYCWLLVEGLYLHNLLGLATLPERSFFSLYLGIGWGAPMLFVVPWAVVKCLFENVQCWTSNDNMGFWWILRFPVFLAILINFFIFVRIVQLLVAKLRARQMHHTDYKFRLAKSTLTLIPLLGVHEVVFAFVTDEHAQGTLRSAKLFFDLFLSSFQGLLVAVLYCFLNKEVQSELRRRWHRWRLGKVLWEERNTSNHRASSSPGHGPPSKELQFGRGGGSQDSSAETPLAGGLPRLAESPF

| Binder | GLP-1R EC50 (pM) [Assay (I)(a)], CRE luciferase reporter, BHK cells (human GLP-1 receptor [1]) | GlucagonR EC50 (pM), [Assay (I)(b)], CRE luciferase reporter, BHK cells (human glucagon receptor [2]) | IC50 (human GLP-1 receptor [3]) | IC50 (human glucagon receptor [4]) |
| --- | --- | --- | --- | --- |
| B1 | 2 pM | 42 pM | 0.4 nM | 10.1 nM |
| H[Aib]QGTFTSDLSRYLDARRARDFVQWLIK([γGlu-γGlu-γGlu-C18 diacid])T-NH2 (also called Chem. 14; Chem 14) | 2 pM | 9 pM | 0.1 nM | 6.4 nM |
| B2 | 4 pM | 70 pM | 0.1 nM | 13.6 nM |
| B3 | 3 pM | 31 pM | 0.1 nM | 8.7 nM |
| B4 | 3 pM | 66 pM | 0.2 nM | 19.1 nM |
| B5 | 3 pM | 36 pM | 0.2 nM | 8.6 nM |
| B6 | 3 pM | 55 pM | 0.4 nM | 14 nM |
